Measured values taken from patent US20130079278A1 (Novo Nordisk, published 2013).
*1 amine or outer side, *2 acyl side, *3 side chain or, on linkers, in order; H or OH if unused. Where no end group is shown, it is not given here. Side-chain parts run from the residue outwards. The star is where a group is joined. C18 diacid = O=C(O)CCCCCCCCCCCCCCCCC(=O)*; C16 diacid = O=C(O)CCCCCCCCCCCCCCC(=O)*; γGlu = O=C(O)[C@H](CCC(=O)[*:2])N[*:1]; AEEA = NCCOCCOCC(=O)O

B1: N^ε24-[(4S)-4-carboxy-4-[[(4S)-4-carboxy-4-[[(4S)-4-carboxy-4-[[(4S)-4-carboxy-4-(17-carboxyheptadecanoylamino)butanoyl]amino]butanoyl]amino]butanoyl]amino]buta … (peptide)
peptide: HSQGTFTSDYSKYLDVRRAQDFVK([γGlu-γGlu-γGlu-γGlu-C18 diacid])WLLST-NH2
modifications: N-terminus assumed
SMILES: CC(C)C[C@H](NC(=O)[C@H](Cc1c[nH]c2ccccc12)NC(=O)[C@H](CCCCNC(=O)CC[C@H](NC(=O)CC[C@H](NC(=O)CC[C@H](NC(=O)CC[C@H](NC(=O)CCCCCCCCCCCCCCCCC(=O)O)C(=O)O)C(=O)O)C(=O)O)C(=O)O)NC(=O)[C@@H](NC(=O)[C@H](Cc1ccccc1)NC(=O)[C@H](CC(=O)O)NC(=O)[C@H](CCC(N)=O)NC(=O)[C@H](C)NC(=O)[C@H](CCCNC(=N)N)NC(=O)[C@H](CCCNC(=N)N)NC(=O)[C@@H](NC(=O)[C@H](CC(=O)O)NC(=O)[C@H](CC(C)C)NC(=O)[C@H](Cc1ccc(O)cc1)NC(=O)[C@H](CCCCN)NC(=O)[C@H](CO)NC(=O)[C@H](Cc1ccc(O)cc1)NC(=O)[C@H](CC(=O)O)NC(=O)[C@H](CO)NC(=O)[C@@H](NC(=O)[C@H](Cc1ccccc1)NC(=O)[C@@H](NC(=O)CNC(=O)[C@H](CCC(N)=O)NC(=O)[C@H](CO)NC(=O)[C@@H](N)Cc1c[nH]cn1)[C@@H](C)O)[C@@H](C)O)C(C)C)C(C)C)C(=O)N[C@@H](CC(C)C)C(=O)N[C@@H](CO)C(=O)N[C@H](C(N)=O)[C@@H](C)O
B2: N^ε24-[(4S)-4-carboxy-4-[[(4S)-4-carboxy-4-[[(4S)-4-carboxy-4-[[(4S)-4-carboxy-4-(17-carboxyheptadecanoylamino)butanoyl]amino]butanoyl]amino]butanoyl]amino]buta … (peptide)
peptide: HSQGTFTSDYSKYLDLRRAQDFVK([γGlu-γGlu-γGlu-γGlu-C18 diacid])WLLST-NH2
modifications: N-terminus assumed
SMILES: CC(C)C[C@H](NC(=O)[C@H](CC(=O)O)NC(=O)[C@H](CC(C)C)NC(=O)[C@H](Cc1ccc(O)cc1)NC(=O)[C@H](CCCCN)NC(=O)[C@H](CO)NC(=O)[C@H](Cc1ccc(O)cc1)NC(=O)[C@H](CC(=O)O)NC(=O)[C@H](CO)NC(=O)[C@@H](NC(=O)[C@H](Cc1ccccc1)NC(=O)[C@@H](NC(=O)CNC(=O)[C@H](CCC(N)=O)NC(=O)[C@H](CO)NC(=O)[C@@H](N)Cc1c[nH]cn1)[C@@H](C)O)[C@@H](C)O)C(=O)N[C@@H](CCCNC(=N)N)C(=O)N[C@@H](CCCNC(=N)N)C(=O)N[C@@H](C)C(=O)N[C@@H](CCC(N)=O)C(=O)N[C@@H](CC(=O)O)C(=O)N[C@@H](Cc1ccccc1)C(=O)N[C@H](C(=O)N[C@@H](CCCCNC(=O)CC[C@H](NC(=O)CC[C@H](NC(=O)CC[C@H](NC(=O)CC[C@H](NC(=O)CCCCCCCCCCCCCCCCC(=O)O)C(=O)O)C(=O)O)C(=O)O)C(=O)O)C(=O)N[C@@H](Cc1c[nH]c2ccccc12)C(=O)N[C@@H](CC(C)C)C(=O)N[C@@H](CC(C)C)C(=O)N[C@@H](CO)C(=O)N[C@H](C(N)=O)[C@@H](C)O)C(C)C
B3: N^ε24-[(4S)-4-carboxy-4-[[(4S)-4-carboxy-4-[[(4S)-4-carboxy-4-[[(4S)-4-carboxy-4-(17-carboxyheptadecanoylamino)butanoyl]amino]butanoyl]amino]butanoyl]amino]buta … (peptide)
peptide: HSQGTFTSDYSKYLDIRRAQDFVK([γGlu-γGlu-γGlu-γGlu-C18 diacid])WLLST-NH2
modifications: N-terminus assumed
SMILES: CC[C@H](C)[C@H](NC(=O)[C@H](CC(=O)O)NC(=O)[C@H](CC(C)C)NC(=O)[C@H](Cc1ccc(O)cc1)NC(=O)[C@H](CCCCN)NC(=O)[C@H](CO)NC(=O)[C@H](Cc1ccc(O)cc1)NC(=O)[C@H](CC(=O)O)NC(=O)[C@H](CO)NC(=O)[C@@H](NC(=O)[C@H](Cc1ccccc1)NC(=O)[C@@H](NC(=O)CNC(=O)[C@H](CCC(N)=O)NC(=O)[C@H](CO)NC(=O)[C@@H](N)Cc1c[nH]cn1)[C@@H](C)O)[C@@H](C)O)C(=O)N[C@@H](CCCNC(=N)N)C(=O)N[C@@H](CCCNC(=N)N)C(=O)N[C@@H](C)C(=O)N[C@@H](CCC(N)=O)C(=O)N[C@@H](CC(=O)O)C(=O)N[C@@H](Cc1ccccc1)C(=O)N[C@H](C(=O)N[C@@H](CCCCNC(=O)CC[C@H](NC(=O)CC[C@H](NC(=O)CC[C@H](NC(=O)CC[C@H](NC(=O)CCCCCCCCCCCCCCCCC(=O)O)C(=O)O)C(=O)O)C(=O)O)C(=O)O)C(=O)N[C@@H](Cc1c[nH]c2ccccc12)C(=O)N[C@@H](CC(C)C)C(=O)N[C@@H](CC(C)C)C(=O)N[C@@H](CO)C(=O)N[C@H](C(N)=O)[C@@H](C)O)C(C)C

What follows are binders tested against glucagon receptor (human, UniProt P47871 26-477) (assay: cell-based or functional assay).
Sequence of glucagon receptor (P47871 26-477): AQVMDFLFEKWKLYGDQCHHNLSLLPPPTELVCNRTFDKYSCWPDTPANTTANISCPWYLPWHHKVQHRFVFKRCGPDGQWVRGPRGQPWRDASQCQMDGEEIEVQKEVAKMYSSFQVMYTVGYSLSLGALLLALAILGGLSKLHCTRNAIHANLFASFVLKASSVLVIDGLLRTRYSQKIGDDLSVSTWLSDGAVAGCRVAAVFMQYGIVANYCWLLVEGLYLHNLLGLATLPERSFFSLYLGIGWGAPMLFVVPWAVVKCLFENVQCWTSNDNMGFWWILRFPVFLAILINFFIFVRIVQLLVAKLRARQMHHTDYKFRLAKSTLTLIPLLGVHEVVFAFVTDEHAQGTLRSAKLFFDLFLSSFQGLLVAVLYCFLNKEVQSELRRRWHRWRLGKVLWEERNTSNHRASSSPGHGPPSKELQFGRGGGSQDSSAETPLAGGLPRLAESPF

Row | Binder | Assay (I) Glucagon [EC50] [nM]
1 | HSQGTFTSDYSRYLDVRRAQDFVK([γGlu-γGlu-AEEA-AEEA-γGlu-C16 diacid])WLLST | 0.026
2 | HSQGTFTSDYSKYLDTRRAQDFVK([γGlu-γGlu-AEEA-AEEA-γGlu-C16 diacid])WLLST | 0.017
3 | B1 | 0.268
4 | HSQGTFTSDYSRYLDARRAQDFVK([γGlu-γGlu-AEEA-AEEA-γGlu-C16 diacid])WLLST | 0.022
5 | HSQGTFTSDYSKYLDVRRAQDFVK([γGlu-γGlu-AEEA-AEEA-γGlu-C16 diacid])WLLST | 0.009
6 | HSQGTFTSDYSRYLDLRRAQDFVK([γGlu-γGlu-AEEA-AEEA-γGlu-C18 diacid])WLLAT | 0.253
7 | HSQGTFTSDYSRYLDERRAQDFVK([γGlu-γGlu-AEEA-AEEA-γGlu-C16 diacid])WLLST | 0.029
8 | HSQGTFTSDYSRYLDLRRAQDFVK([γGlu-γGlu-AEEA-AEEA-γGlu-C18 diacid])WLLGT | 0.47
9 | HSQGTFTSDYSRYLDLRRAQDFVK([γGlu-γGlu-AEEA-AEEA-γGlu-C16 diacid])WLLAT | 0.064
10 | HSQGTFTSDYSKYLDVRRAQDFVK([γGlu-γGlu-γGlu-γGlu-C18 diacid])WLLST | 0.134
11 | HSHGTFTSDYSKYLETRRAQDFVK([γGlu-γGlu-AEEA-AEEA-γGlu-C18 diacid])WLLNT | 0.036
12 | HSQGTFTSDYSRYLDLRRAQDFVK([γGlu-γGlu-AEEA-AEEA-γGlu-C16 diacid])WLLGT | 0.09
13 | HSQGTFTSDYSKYLDIRRAQDFVK([γGlu-γGlu-γGlu-γGlu-C18 diacid])WLLST | 0.189
14 | HSQGTFTSDYSKYLDERRAQDFVK([γGlu-γGlu-AEEA-AEEA-γGlu-C16 diacid])WLLST | 0.017
15 | B2 | 0.812
16 | HSQGTFTSDYSKYLDARRAQDFVK([γGlu-γGlu-AEEA-AEEA-γGlu-C16 diacid])WLLST | 0.016
17 | HSQGTFTSDYSKYLDLRRAQDFVK([γGlu-γGlu-AEEA-AEEA-γGlu-C16 diacid])WLLST | 0.039
18 | HSQGTFTSDYSRYLDARRAQDFVK([γGlu-γGlu-γGlu-C18 diacid])WLLST | 0.066
19 | HSQGTFTSDYSKYLDLRRAQDFVK([γGlu-γGlu-γGlu-γGlu-C18 diacid])WLLST | 0.126
20 | HSQGTFTSDYSRYLDARRAQDFVK([γGlu-γGlu-γGlu-γGlu-C18 diacid])WLLST | 0.062
21 | HSQGTFTSDYSRYLDTRRAQDFVK([γGlu-γGlu-AEEA-AEEA-γGlu-C16 diacid])WLLST | 0.025
22 | HSQGTFTSDYSRYLDLRRAQDFVK([γGlu-γGlu-γGlu-γGlu-C18 diacid])WLLST | 0.343
23 | HSQGTFTSDYSRYLDLRRAQDFVK([γGlu-γGlu-γGlu-C16 diacid])WLLST | 0.027
24 | B3 | 0.402
25 | HSQGTFTSDYSKYLDIRRAQDFVK([γGlu-γGlu-AEEA-AEEA-γGlu-C18 diacid])WLLNT | 0.081
